In patent US12290533B2, “Extracellular vesicles and methods of using” (NUtech Ventures, priority 2018, dated 2025):

Tested on: human umbilical vein endothelial cells (HUVEC)
Experiment: Uptake of fluorophore-labeled cow's milk exosomes into HUVECs
Assay type: cell-based
Conditions: exosomal surface proteins removed by proteinase K

B1: proteinase K: non-specific protease used to remove surface proteins of exosomes or cells (protein, UniProt P06873 106-384, looked up)
Proteinase K: AAQTNAPWGLARISSTSPGTSTYYYDESAGQGSCVYVIDTGIEASHPEFEGRAQMVKTYYYSSRDGNGHGTHCAGTVGSRTYGVAKKTQLFGVKVLDDNGSGQYSTIIAGMDFVASDKNNRNCPKGVVASLSLGGGYSSSVNSAAARLQSSGVMVAVAAGNNNADARNYSPASEPSVCTVGASDRYDRRSSFSNYGSVLDIFGPGTSILSTWIGGSTRSISGTSMATPHVAGLAAYLMTLGKTTAASACRYIADTANKGDLSNIPFGTVNLLAYNNYQA
B1 was tested, and the exosome uptake was ~50 % of controls.
